From doi:10.1101/2025.07.07.663466

Target: T1, recombinant M. tuberculosis GroEL1 (M. tuberculosis), P9WPE9
T1 chain: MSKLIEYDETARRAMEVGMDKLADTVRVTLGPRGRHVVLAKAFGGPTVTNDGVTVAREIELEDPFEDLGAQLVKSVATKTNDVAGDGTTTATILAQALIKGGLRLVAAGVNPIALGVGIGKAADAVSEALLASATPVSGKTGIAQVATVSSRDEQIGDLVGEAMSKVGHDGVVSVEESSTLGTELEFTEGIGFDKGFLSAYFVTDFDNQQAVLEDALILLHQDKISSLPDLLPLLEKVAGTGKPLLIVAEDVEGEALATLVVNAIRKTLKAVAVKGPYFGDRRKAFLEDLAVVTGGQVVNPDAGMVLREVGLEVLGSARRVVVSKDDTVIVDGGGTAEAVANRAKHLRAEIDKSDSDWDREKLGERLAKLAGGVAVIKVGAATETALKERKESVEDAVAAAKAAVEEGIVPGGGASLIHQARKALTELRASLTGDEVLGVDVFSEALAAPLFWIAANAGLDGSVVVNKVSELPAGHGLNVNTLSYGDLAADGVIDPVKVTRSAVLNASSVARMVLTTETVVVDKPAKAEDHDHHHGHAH
Assay: native gel or EMSA
Conditions: remark: other sources report otherwise

B1: recombinant M. tuberculosis GroEL1, P9WPE9 1-539 (natural protein)
chain: T1 chain
  stoichiometry N: 2
